± gives the standard deviation of the averaged measurements.
Tested on: Saccharomyces cerevisiae
Assay: protein stability index of tFT-peptide fusion (C-terminal peptide) (PSI (0-1 scale)); higher = more stable (slower turnover)
Conditions: temperature: 30 C
Protocol: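 MPS profiling in S. cerevisiae of the yeast C-terminome library: the last 12 aa of each annotated ORF are fused to the C-terminus of a sfGFP-mCherry timer, after a GGGS linker. Cells are FACS-sorted into 8 mCherry/sfGFP bins and deep-sequenced. PSI runs from 0 (unstable) to 1 (stable); wild type and das1Δ backgrounds, two technical replicates each.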

[1] = genetic background: das1 deletion

Sequence	protein stability index [1]	protein stability index (genetic background: wild type)
KVKTKKEEGKER [PXA2 C-terminal 12 aa]	0.698 ± 0.022	0.654 ± 0.0067
KVPPRKDGIKFR [RTS2 C-terminal 12 aa]	0.728 ± 0.0069	0.695 ± 0.018
KWKKNKKRKFTK [UBP10 C-terminal 12 aa]	0.729 ± 0.024	0.6898 ± 0.0066
KWLLKPCIYKRR [RRP8 C-terminal 12 aa]	0.717 ± 0.0061	0.691 ± 0.016
KYLNDEQVKLNV [ADE13 C-terminal 12 aa]	0.72 ± 0.026	0.68 ± 0.035
KYTGVYRSSWHG [YLR125W C-terminal 12 aa]	0.701 ± 0.0013	0.6925 ± 0.0057
KYVTQILYTPLQ [GAL83 C-terminal 12 aa]	0.692 ± 0.0075	0.7144 ± 0.0036
LAFFKRDFFKGL [NDI1 C-terminal 12 aa]	0.699 ± 0.02	0.569 ± 0.039
LAIEIVLCLKAR [YLR255C C-terminal 12 aa]	0.331 ± 0.0034	0.355 ± 0.019
LALFAGLISALL [GAS3 C-terminal 12 aa]	0.71854 ± 0.00069	0.654 ± 0.0065
LCEFLKGVQSAL [DAK1 C-terminal 12 aa]	0.7137 ± 0.005	0.683 ± 0.011
LCLLFFTFSLFF [GAS4 C-terminal 12 aa]	0.3594 ± 0.0027	0.371 ± 0.016
LDDNELFKNVWS [AGE2 C-terminal 12 aa]	0.728 ± 0.017	0.713 ± 0.017
LDVVKSRGSKHS [HSU1 C-terminal 12 aa]	0.7099 ± 0.003	0.7 ± 0.062
LEKDTRQDTKAN [MCO10 C-terminal 12 aa]	0.693 ± 0.0045	0.671 ± 0.025
LENLSQEYCSEI [YBR096W C-terminal 12 aa]	0.715 ± 0.029	0.72 ± 0.023
LEVYASGNPNAT [NDC1 C-terminal 12 aa]	0.697 ± 0.016	0.692 ± 0.0073
LEWLSNNLKNQS [ARF2 C-terminal 12 aa]	0.702 ± 0.0047	0.714 ± 0.041
LEYLQDTYQVLK [FAR3 C-terminal 12 aa]	0.702 ± 0.031	0.733 ± 0.01
LEYYSNRDNDMN [RIF1 C-terminal 12 aa]	0.672 ± 0.042	0.69 ± 0.026
LFSDKMEPLFKK [AIF1 C-terminal 12 aa]	0.746 ± 0.018	0.738 ± 0.012

Sequence	protein stability index [1]	protein stability index (genetic background: wild type)
LGIVIKRGKSLK [YJU2 C-terminal 12 aa]	0.7248 ± 0.0027	0.738 ± 0.024
LGVVSKMLVTCK [CIA2 C-terminal 12 aa]	0.303 ± 0.026	0.326 ± 0.0041
LIALNRYIEDLH [MRP20 C-terminal 12 aa]	0.6999 ± 0.0024	0.695 ± 0.007
LIEDVNKLKIKA [SOV1 C-terminal 12 aa]	0.634 ± 0.029	0.645 ± 0.025
LISRRREDEERN [YPL216W C-terminal 12 aa]	0.788 ± 0.038	0.726 ± 0.037
LIVVLLLLLLVL [SYN8 C-terminal 12 aa]	0.446 ± 0.0069	0.545 ± 0.12
LKEASRYILEVY [MET10 C-terminal 12 aa]	0.28 ± 0.013	0.31 ± 0.0096
LKGILNLFSKIR [KRE29 C-terminal 12 aa]	0.671 ± 0.0078	0.699 ± 0.025
LKHFVSAPSSSL [MRK1 C-terminal 12 aa]	0.699 ± 0.011	0.656 ± 0.0095
LKNKKKLYKTKV [PPQ1 C-terminal 12 aa]	0.7157 ± 0.0043	0.694 ± 0.017
LKTSGRYQEDVW [NCP1 C-terminal 12 aa]	0.706 ± 0.02	0.702 ± 0.02
LLEVSDQAFEPE [RGD1 C-terminal 12 aa]	0.6967 ± 0.0019	0.683 ± 0.053
LLGENLSDMPSL [RDS1 C-terminal 12 aa]	0.6893 ± 0.0025	0.693 ± 0.021
LLQHPWLDAHII [STE11 C-terminal 12 aa]	0.722 ± 0.028	0.7253 ± 0.0019
LLQVCFIGVVCE [IRC21 C-terminal 12 aa]	0.275 ± 0.0082	0.2885 ± 0.0018
LNAVESLKEAST [TIM11 C-terminal 12 aa]	0.69 ± 0.0078	0.686 ± 0.029
LNKIKNIRKKKQ [SNQ2 C-terminal 12 aa]	0.705 ± 0.031	0.393 ± 0.021
LNLPVQVEKKEK [MMR1 C-terminal 12 aa]	0.69221 ± 0.00034	0.692 ± 0.013
LNSYEEEANGST [SHG1 C-terminal 12 aa]	0.7062 ± 0.0036	0.734 ± 0.028
LQHYRTHLKKGQ [NRG1 C-terminal 12 aa]	0.7007 ± 0.0015	0.6784 ± 0.0039
LQSLPISSWRCT [YBR220C C-terminal 12 aa]	0.701 ± 0.0098	0.6711 ± 0.003

Sequence	protein stability index [1]	protein stability index (genetic background: wild type)
LQVILMSLGAIA [MDM31 C-terminal 12 aa]	0.446 ± 0.014	0.508 ± 0.0098
LRANANMPTPSL [RLF2 C-terminal 12 aa]	0.7083 ± 0.0022	0.665 ± 0.0083
LRKDRQVEYPYK [MGM101 C-terminal 12 aa]	0.723 ± 0.033	0.779 ± 0.035
LRLKYNDANTKL [VTC1 C-terminal 12 aa]	0.68 ± 0.011	0.6552 ± 0.0047
LSCRKNLSAFAT [YOL085C C-terminal 12 aa]	0.658 ± 0.018	0.666 ± 0.0096
LSIMKTLVPWTL [YML054C-A C-terminal 12 aa]	0.712 ± 0.024	0.6528 ± 0.0022
LTEILSKVFNRL [DUG2 C-terminal 12 aa]	0.702 ± 0.018	0.678 ± 0.033
LTFDVKLVSMKN [FPR3 C-terminal 12 aa]	0.679 ± 0.025	0.667 ± 0.046
LTLARYRAKGML [TOM71 C-terminal 12 aa]	0.6936 ± 0.0042	0.657 ± 0.018
LVICCQRCRRNC [YPL277C C-terminal 12 aa]	0.69 ± 0.0082	0.552 ± 0.051
LVKLYISFFFMC [YBR144C C-terminal 12 aa]	0.313 ± 0.0049	0.136 ± 0.0087
LVLLLQIYFFSF [YGR242W C-terminal 12 aa]	0.277 ± 0.03	0.296 ± 0.0078
LVRQKREHEKKE [GPT2 C-terminal 12 aa]	0.713 ± 0.0084	0.658 ± 0.021
LVYRDGEISELK [PAT1 C-terminal 12 aa]	0.7114 ± 0.0045	0.703 ± 0.13
LWNEFLSSINEK [ECM31 C-terminal 12 aa]	0.736 ± 0.036	0.743 ± 0.06
MAMPPGQSQPQY [DHH1 C-terminal 12 aa]	0.727 ± 0.0093	0.713 ± 0.034
MCSIINIQQWYV [YGL182C C-terminal 12 aa]	0.6733 ± 0.0013	0.627 ± 0.01
MDGFNDPFAAAA [GIP2 C-terminal 12 aa]	0.736 ± 0.028	0.752 ± 0.072
MDSGLDLEFCKP [YKR075W-A C-terminal 12 aa]	0.687 ± 0.019	0.692 ± 0.045
MESNDNLERVLS [APS1 C-terminal 12 aa]	0.673 ± 0.038	0.695 ± 0.032
MISGPSSSSSAP [CYC3 C-terminal 12 aa]	0.719 ± 0.012	0.741 ± 0.081

Sequence	protein stability index [1]	protein stability index (genetic background: wild type)
MKVLQLGFSWGG [IRC7 C-terminal 12 aa]	0.7148 ± 0.0053	0.6814 ± 0.0067
MMNFFRDLKYGH [ODC2 C-terminal 12 aa]	0.704 ± 0.004	0.693 ± 0.018
MNKAEDDISEEE [SUB1 C-terminal 12 aa]	0.713 ± 0.029	0.684 ± 0.011
MNRNKSDVPYLQ [YER053C-A C-terminal 12 aa]	0.702 ± 0.014	0.658 ± 0.027
MPPEHPFYSHYR [YNL193W C-terminal 12 aa]	0.7283 ± 0.0031	0.729 ± 0.01
MQTKIEHYMESI [MRX12 C-terminal 12 aa]	0.712 ± 0.028	0.68 ± 0.053
MRKHLRVSPFLF [YDL071C C-terminal 12 aa]	0.711 ± 0.016	0.329 ± 0.0068
MVVIVLFLSYRN [YGL177W C-terminal 12 aa]	0.276 ± 0.034	0.275 ± 0.031
MWPMPSLPWNGM [TSR1 C-terminal 12 aa]	0.727 ± 0.019	0.687 ± 0.017
NAASLIGTQQNN [DNF1 C-terminal 12 aa]	0.709 ± 0.013	0.685 ± 0.013
NALKSKQKNKDD [AYR1 C-terminal 12 aa]	0.684 ± 0.0082	0.698 ± 0.044
NCPGCESKPVIT [SSL1 C-terminal 12 aa]	0.678 ± 0.016	0.683 ± 0.0096
NDDSKDEVDIIP [YPR196W C-terminal 12 aa]	0.69 ± 0.013	0.698 ± 0.015
NDISFAFQYISH [RAD54 C-terminal 12 aa]	0.749 ± 0.014	0.683 ± 0.069
NDNHNPFYIREE [CDC26 C-terminal 12 aa]	0.723 ± 0.021	0.705 ± 0.049
NEKLSRESKGSE [SYF2 C-terminal 12 aa]	0.687 ± 0.01	0.691 ± 0.014
NENEFIAICTDS [CDC31 C-terminal 12 aa]	0.698 ± 0.02	0.695 ± 0.022
NENIHSLIGNSY [NNF2 C-terminal 12 aa]	0.702 ± 0.023	0.693 ± 0.0087
NENSEIISIDED [CTR86 C-terminal 12 aa]	0.676 ± 0.0078	0.65 ± 0.023

From the supplement of paper PMC10724198
